In patent US20110217317A1 (published 2011):

T1: Rhesus D antigen (human, UniProt Q02161 2-417)
T1 construct: whole, on cells; Presented on RhD-positive erythrocytes in all assays; also called RhD; RhD antigen
T1 sequence (looked up): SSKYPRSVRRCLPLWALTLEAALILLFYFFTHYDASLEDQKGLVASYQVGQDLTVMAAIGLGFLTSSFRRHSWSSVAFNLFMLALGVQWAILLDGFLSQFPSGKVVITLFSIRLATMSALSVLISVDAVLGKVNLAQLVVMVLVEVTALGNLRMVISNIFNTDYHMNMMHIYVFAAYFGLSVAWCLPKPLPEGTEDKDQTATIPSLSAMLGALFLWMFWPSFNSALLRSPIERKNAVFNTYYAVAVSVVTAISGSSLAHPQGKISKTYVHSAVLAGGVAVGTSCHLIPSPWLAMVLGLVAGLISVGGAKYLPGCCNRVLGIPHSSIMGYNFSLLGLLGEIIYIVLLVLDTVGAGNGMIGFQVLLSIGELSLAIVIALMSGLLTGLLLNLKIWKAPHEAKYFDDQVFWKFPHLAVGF

B1: RhD162.119G12 (Fab, V domains shown)
VH: QVQLVESGGGLVKPGGSLRLSCAASGFGFSAYSMNWVRQAPGKGLEWVSSITSTTTYYADSVKGRFSISRDNAKSTLYLRMNSLRAEDTAVYYCVREIAFRGSTYSRWSYYFDFWGQGTLVTVSS
VL: DIQLTQSPSSVSASVGDSVTITCRASQAVSGWVAWYQQKPGKAPKLLIFGLSNLEDGVPSRFSGSGSATDFTLTITGLQPEDLATYYCLQANRFPLSFGGGTRVEIKR
notes: Tested as Fab (periplasmic extract)
B2: RhD324.231F07 (Fab, V domains shown)
VH: EVQLVESGGGLVQPGRSLRLSCVASGFTFSSYWMHWVRQVPGKGLVWVSRINVDGKSTSYADSVKGRFTISRDNAKNTLYLQMNSLRAEDTAVYYCARDPRRFLEWARYGMDVWGRGTTVTVSS
VL: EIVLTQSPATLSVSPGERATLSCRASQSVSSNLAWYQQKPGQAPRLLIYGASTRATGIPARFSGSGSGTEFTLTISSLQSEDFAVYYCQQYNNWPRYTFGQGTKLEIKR
notes: as for B1
B3: RhD323.229B07 (Fab, V domains shown)
VH: QVQLVESGGGVVQPGRSLRLSCAASGFTFSSYGMHWVRQAPGKGLEWVAVIWYDGSNKYYADSVKGRFTISRDNSKNTLYLQMNSLRAEDTAVYYCARDWVTRSSNWYRNYYYYGMDVWGQGTTVTVSS
VL: DIQMTQSPSSLSASVGDRVTITCRASQSISSYLNWYQQKPGKAPKLLIYAASTLQSGVPSRFSGSGSGTDFTLTISSLQPEDFATYYCQQYYRTPTWTFGQGTKVEIKR
notes: as for B1
B4: RhD189.181E07 (Fab, V domains shown)
VH: QVQLVESGGGVVQPGRSLRLSCAASGFTFSSYGMHWVRQAPGKGLEWVAVIWYDGSNKYYADSVKGRFTISRDNSKNTLYLQMNSLRAEDTAVYYCARDMVTMVRGAYRNYYYYGMDVWGKGTTVTVSS
VL: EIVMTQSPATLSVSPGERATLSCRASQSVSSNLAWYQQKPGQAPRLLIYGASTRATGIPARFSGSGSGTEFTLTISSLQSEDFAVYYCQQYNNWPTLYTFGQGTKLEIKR
notes: as for B1
B5: RhD163.119A02 (Fab, V domains shown)
VH: QVQLQESGPGLVKPSETLSLTCTVSGGSISSYYWSWVRQPPGKGLEWIGYIYYSGSTNYNPSLKSRVTIALDTSKNQFSLKLRSVTAADTAVYFCTRDWRQYGSAIRGSRYYYGMDVWGQGTTVTVSS
VL: EIVLTQSPGTLSLSPGERATLSCRASQNPRRNFLAWYQQKPGQAPRLLIYAASTRATGIPDRFSGSGSGTDFTLTIDRLEPEDSAVYYCQVYGSSPLYTFGQGTKVEMKR
notes: as for B1

The binders below were run against T1, Rhesus D antigen (assay: Fab screening on red blood cells (agglutination/FACS)).

Binding result, binds:
B1, B2, B3, B4, B5
